Experimental data taken from the RNAGym collection of RNA variant scans (doi:10.1073/pnas.2313332121).
Variants at the floor of the assay were thinned out.

B1: TPR 5TU (parent)
chain: GGAUCUUCUCGAUCUAACAAAAAAGACAAAUCUGCCACAAAGCUUGAGAGCAUCUUCGGAUGCAGAGGCGGCAGCCUUCGGUGGCGCGAUAGCGCCAACGUUCUCAACUAUGACACGCAAAACGCGUGCUCCGUUGAAUGGAGUUUAUCAUG

Variants of: B1
Assay: polymerase ribozyme fitness, log enrichment relative to wild type (log ratio); higher = more active; in vitro selection for triplet polymerase activity
In short: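 Frozen incubation at −7 °C formed the core of a single, triplicate in vitro selection round applied to PCR-built, transcribed mutant libraries of each subunit of a heterodimeric triplet polymerase ribozyme. Extended constructs were gel-excised, captured with streptavidin beads and amplified by RT-PCR, and input and output libraries were Illumina-sequenced with a filter of ≥10 input reads and ≥1 read per output. Fitness is the logarithm of genotype enrichment relative to wild-type enrichment, with inverse-variance-weighted replicate averaging, and the logarithm is base 2.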

| Variant | polymerase ribozyme fitness (log ratio) |
| --- | --- |
| A20U A47G A89U C105U | -2.65 |
| A20G C43U U55A C85U C96G A98U A107G | ≤ -4.2 |
| A20U A52G | -2.02 |
| A19U A73G | 0.504 |
| A20U A40C G59A U77C U101C C108A U146G | ≤ -4.2 |
| A19U U53G U55A C85G | ≤ -4.2 |
| A20G G71A C96A | ≤ -4.2 |
| A20U A26C C32U A64C C75G U78G C123U U134C U145C | ≤ -4.2 |
| A19U U33G A40C C87U C93U C103A | ≤ -4.2 |
| A20G C85A U104C C105G | ≤ -4.2 |
| A19U C38G C43G G80C C87U C149G | ≤ -4.2 |
| A19U A40G A110C | ≤ -4.2 |
| A20C A29C G92U C149G | ≤ -4.2 |
| A20U A52C C93U | -3.12 |
| A20C A21U A30G A40G G94U A121G A137U | ≤ -4.2 |
| A20G C54A G68A C87U | ≤ -4.2 |
| A19U U53A G81U C96A | -2.73 |
| A19U A28U G83C | ≤ -4.2 |
| A20U A52G U53A U55A C69A A110G U146G | ≤ -4.2 |
| A20C G92U C125A | -0.863 |
| A20U A22U G67C C79U C99G C118U | ≤ -4.2 |

| Variant | polymerase ribozyme fitness (log ratio) |
| --- | --- |
| A20G C36U C85G | -4.17 |
| A20C C38G | -1.37 |
| A19U A40C G94A A107U | ≤ -4.2 |
| A20G A24U C35U G42C C79A C85G G88U A147G G152A | ≤ -4.2 |
| A20C C149G | -2.96 |
| A19U U53A G71C G84A C96U A97U C108G G140U | ≤ -4.2 |
| A20G U55A G59U C76U C96A | -1.18 |
| A19U U56A | -0.835 |
| A20G C63U C96A G143C | -3.2 |
| A19U A49U G71A C93U U102G C103G | ≤ -4.2 |
| A20U A22G A52U A73G C85U G124C | -3.91 |
| A20G A24G U53A A91G A97U U109C U130A G141A A142C | ≤ -4.2 |
| A19U G62A C96G | -1.02 |
| A19U C51U A91U G94A G133A A137C | ≤ -4.2 |
| A20U A29G G42A C57A A91G G94C | ≤ -4.2 |
| A20C A28U C35A G67U U102A | ≤ -4.2 |
| A19U G92U A150C | -2.67 |
| A20C A24U C57U | -0.111 |
| A20U A22C C87A G88C A98U A107G | ≤ -4.2 |
| A20C U44C U55G C69A | ≤ -4.2 |
| A19U C96U C125G | -0.589 |

| Variant | polymerase ribozyme fitness (log ratio) |
| --- | --- |
| A20G A24U C87U A107G | ≤ -4.2 |
| A20U A24C A49C G71A C72A C93U C103G U109C | ≤ -4.2 |
| A19U C93U A97U G141C | -2.49 |
| A20G G94A C105G | -2.04 |
| A20C G80A U82A C93U A98C | -2.56 |
| A19U A37U G67C C85A U109G U148C | ≤ -4.2 |
| A19U A37C U82G A89U C95G A97C A107U U127A | ≤ -4.2 |
| A20G G83U | -0.993 |
| A19U U31C C132G | -2.74 |
| A20C A26G U56A C63U G67U G80A C85U G86C C103G | ≤ -4.2 |
| A20G G83U A89G C99U G141A U146A | ≤ -4.2 |
| A20U A21U A41C A47U G58U U104A | -2.77 |
| A20C C51G C95G C149U | ≤ -4.2 |
| A19U U56A G86A A107G | ≤ -4.2 |
| A19U G83C A89C A97G | -2.32 |
| A19U C57U G81C C93G C125A | -3.42 |
| A20U A37G A120C A142C | ≤ -4.2 |
| A20C A40U C95U | -0.74 |
| A20C C85A G126C | 0.52 |
| A19U C95U C99A U145A | -2.13 |
| A20C G81U G94U A120U U151C | -4.13 |

| Variant | polymerase ribozyme fitness (log ratio) |
| --- | --- |
| A20G G86U A91C U146G | ≤ -4.2 |
| A20C U53A U56G C85A A119C | -4 |
| A20G U144A | -0.576 |
| A19U G94A A121U C125G | -0.351 |
| A20G U53G G74A C93A | ≤ -4.2 |
| A20C G50U C95U A106U A137C | ≤ -4.2 |
| A20G U148C | -1.93 |
| A20U A30U A39U G62A G68A G140U | ≤ -4.2 |
| A20G G48A C69A A98U A142G | -3.3 |
| A19U G68C C85U | ≤ -4.2 |
| A19U G92U U102A U146C | -2.35 |
| A20C C57G C85A C118U G143C | -3.96 |
| A20C G50A C63A C85U G117U | -1.09 |
| A20C G83C | -1.3 |
| A19U C96U A120G A121C | -0.837 |
| A19U G58A G62A G67A A89G C108A C116A G152U | ≤ -4.2 |
| A20C U44A A49C C96G C103A G141C | ≤ -4.2 |
| A19U C85U A107G | ≤ -4.2 |
| A20C C54A G84U C116U | -3.08 |
| A19U C93U | -0.795 |
